Paper PMC10397247
Each block holds one binder with its values, some of them ahead of it.

Key:
Test in all cases: two-hybrid library CCNG1;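 also: natural log of median RNA to DNA barcode read ratio; higher means stronger binding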
[1] = molecular target: T1, 4H4073-bA
T1 chain: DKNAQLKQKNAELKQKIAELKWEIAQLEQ

[2] = molecular target: T2, 4H575-bA
T2 chain: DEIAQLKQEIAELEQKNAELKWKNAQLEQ

[3] = molecular target: T3, 4H780-bA
T3 chain: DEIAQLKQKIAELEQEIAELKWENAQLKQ

[4] = molecular target: T4, 4H953-bA
T4 chain: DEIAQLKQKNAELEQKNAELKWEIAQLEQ

[5] = molecular target: T5, 4H457-bA
T5 chain: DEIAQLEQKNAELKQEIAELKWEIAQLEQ

[6] = molecular target: T6, 4H3427-bA
T6 chain: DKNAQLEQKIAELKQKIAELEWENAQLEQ

[7] = molecular target: T7, 4H918-bA
T7 chain: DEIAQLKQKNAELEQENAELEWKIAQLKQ

[8] = molecular target: T8, 4H346-bA
T8 chain: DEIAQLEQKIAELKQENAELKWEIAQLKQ

[9] = molecular target: T9, 4H3112-bA
T9 chain: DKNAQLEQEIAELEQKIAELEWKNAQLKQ

[10] = molecular target: T10, 4H968-bA
T10 chain: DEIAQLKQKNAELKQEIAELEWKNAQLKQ

[11] = molecular target: T11, 4H797-bA
T11 chain: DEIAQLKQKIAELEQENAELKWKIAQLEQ

[12] = molecular target: T12, 4H683-bA
T12 chain: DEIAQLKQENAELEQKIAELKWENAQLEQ

[13] = molecular target: T13, 4H754-bA
T13 chain: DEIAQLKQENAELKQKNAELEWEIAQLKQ

[14] = molecular target: T14, 4H3010-bA
T14 chain: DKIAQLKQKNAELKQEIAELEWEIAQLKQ

[15] = molecular target: T15, 4H855-bA
T15 chain: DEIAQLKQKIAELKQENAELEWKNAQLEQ

[16] = molecular target: T16, 4H3926-bA
T16 chain: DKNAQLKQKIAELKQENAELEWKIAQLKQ

[17] = molecular target: T17, 4H3782-bN
T17 chain: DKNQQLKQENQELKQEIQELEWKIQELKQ

[18] = molecular target: T18, 4H797-bN
T18 chain: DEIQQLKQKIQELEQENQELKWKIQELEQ

[19] = molecular target: T19, 4H3354-bN
T19 chain: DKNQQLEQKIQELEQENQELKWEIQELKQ

[20] = molecular target: T20, 4H4001-bN
T20 chain: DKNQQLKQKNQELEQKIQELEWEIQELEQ

[21] = molecular target: T21, 4H72-bN
T21 chain: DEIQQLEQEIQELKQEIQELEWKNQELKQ

[22] = molecular target: T22, 4H908-bN
T22 chain: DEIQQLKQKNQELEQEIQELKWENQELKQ

[23] = molecular target: T23, 4H3606-bN
T23 chain: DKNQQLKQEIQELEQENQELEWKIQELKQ

[24] = molecular target: T24, 4H953-bN
T24 chain: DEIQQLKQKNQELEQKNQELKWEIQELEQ

[25] = molecular target: T25, 4H462-bN
T25 chain: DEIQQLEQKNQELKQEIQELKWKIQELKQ

[26] = molecular target: T26, 4H967-bN
T26 chain: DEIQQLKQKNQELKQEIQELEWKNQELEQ

[27] = molecular target: T27, 4H3843-bN
T27 chain: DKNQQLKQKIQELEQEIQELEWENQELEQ

[28] = molecular target: T28, 4H687-bN
T28 chain: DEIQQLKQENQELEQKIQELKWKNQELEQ

[29] = molecular target: T29, 4H568-bN
T29 chain: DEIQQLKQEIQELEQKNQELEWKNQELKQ

[30] = molecular target: T30, 4H454-bN
T30 chain: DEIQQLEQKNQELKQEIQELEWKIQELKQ

[31] = molecular target: T31, 4H338-bN
T31 chain: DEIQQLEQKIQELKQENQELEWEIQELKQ

[32] = molecular target: T32, 4H754-bN
T32 chain: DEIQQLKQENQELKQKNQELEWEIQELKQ

[33] = molecular target: T33, 4H331-bN
T33 chain: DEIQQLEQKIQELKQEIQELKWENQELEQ

[34] = molecular target: T34, 4H3427-bN
T34 chain: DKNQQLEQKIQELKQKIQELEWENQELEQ

[35] = molecular target: T35, 4H607-bN
T35 chain: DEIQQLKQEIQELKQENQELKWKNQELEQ

[36] = molecular target: T36, 4H370-bN
T36 chain: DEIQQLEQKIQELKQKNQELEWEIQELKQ

[37] = molecular target: T37, 4H918-bN
T37 chain: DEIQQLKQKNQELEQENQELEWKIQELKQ

[38] = molecular target: T38, 4H3855-bN
T38 chain: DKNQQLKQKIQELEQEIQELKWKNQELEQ

[39] = molecular target: T39, 4H883-bN
T39 chain: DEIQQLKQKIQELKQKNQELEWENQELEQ

[40] = molecular target: T40, 4H717-bN
T40 chain: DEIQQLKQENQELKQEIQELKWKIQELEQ

[41] = molecular target: T41, O6-bS
T41 chain: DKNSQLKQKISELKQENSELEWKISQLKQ

[42] = molecular target: T42, O4-bS
T42 chain: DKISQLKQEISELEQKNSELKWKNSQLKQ

[43] = molecular target: T43, O8-bS
T43 chain: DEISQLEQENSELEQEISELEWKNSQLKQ

[44] = molecular target: T44, O5-bS
T44 chain: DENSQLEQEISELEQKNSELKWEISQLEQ

[45] = molecular target: T45, O9-bS
T45 chain: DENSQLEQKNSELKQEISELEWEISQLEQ

[46] = molecular target: T46, O7-bS
T46 chain: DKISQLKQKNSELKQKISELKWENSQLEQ

interaction score [1]: 0.722
interaction score [2]: -0.532
interaction score [3]: -1.79
interaction score [4]: 0.368
interaction score [5]: 1.48
interaction score [6]: 0.296
interaction score [7]: -0.579
interaction score [8]: -0.9
interaction score [9]: -0.267
interaction score [10]: -0.854
interaction score [11]: -0.928
interaction score [12]: 0.693
interaction score [13]: -0.693
interaction score [14]: 0.824
interaction score [15]: -1.32
interaction score [16]: 1.35
Binder: DKIAQLKQKNAELKQEIAELEWEIAQLKQ [4H3010-bA]

interaction score [17]: -0.492
interaction score [18]: -0.866
interaction score [19]: -0.055
interaction score [20]: 0.329
interaction score [21]: 0.918
interaction score [22]: -1.35
interaction score [23]: -0.132
interaction score [24]: -0.578
interaction score [25]: -0.381
interaction score [26]: -0.995
interaction score [27]: -0.476
interaction score [28]: -0.624
interaction score [29]: -1.41
interaction score [30]: -0.999
interaction score [31]: -0.434
interaction score [32]: -0.762
interaction score [33]: -0.214
interaction score [34]: 1.12
interaction score [35]: -2.2
interaction score [36]: 0.508
interaction score [37]: -0.476
interaction score [38]: 1.17
interaction score [39]: -0.0918
interaction score [40]: -0.661
Binder: DEIQQLEQKIQELKQEIQELKWENQELEQ [4H331-bN]

interaction score [41]: 0.143
interaction score [42]: -1.26
interaction score [43]: -2.55
interaction score [44]: -0.823
interaction score [45]: 0.414
interaction score [46]: -0.221
Binder: DKISQLKQEISELEQKNSELKWKNSQLKQ [O4-bS]
